# Assay results reported in patent publication US20180021429A1, “ANTICANCER AGENTS OR ANTIMETASTATIC AGENTS USING FSTL1 AND COMBINATION DRUG THEREOF” (PHARMA FOODS INTERNATIONAL CO., LTD., priority 2015, published 2018).
# Where a chain is given by its changes, count along the chain named.
# B1: #6-55: chicken-mouse chimeric anti-FSTL1 antibody clone; variable regions SEQ ID NO: 783 (light), 785 (heavy) (antibody, V domains shown)
# VH: AVTLDESGGGLQTPGGALSLVCKGSGFTFTSVTMQWVRQAPGKGLEWVASVCSGSSTYYAPAVKGRATISRDNGQSTVRLQLSNLRPEDTGTYYCAKIAGRARWSCTSAAYNIDAWGHGTEVIVSS
# VL: ASTQPSSVSAIPGETVKITCSGGGNNYGWYQQRSPGSAPVTVIYYNDNRPSNIPSRFSGSTSGSTSTLTITGVQADDEAIYYCGSWDSNTDSGIFGAGTTLTVL
# modifications: mouse constant regions
# B2: #7-34: chicken-mouse chimeric anti-FSTL1 antibody clone; variable regions SEQ ID NO: 787 (light), 789 (heavy) (antibody, V domains shown)
# VH: AVTLDESGGGLQTPGGGLSLVCKASGFTFSSVTMQWVRQAPGKGLEWVASICSGSSTYYGPAVKGRATISRDNGQNTVRLQLNNLRAEDTATYYCAKIVGRGRWSCTSAAYNIDAWGHGTEVIVSS
# VL: B1 VL with I11N, R33K, D47N, D76E, I80V, W86Y, D87E, S88G, N89S
# modifications: mouse constant regions
# B3: #8-1: chicken-mouse chimeric anti-FSTL1 antibody clone; variable regions SEQ ID NO: 791 (light), 793 (heavy) (antibody, V domains shown)
# VH: AVTLDESGGGLQTPGGALSLVCKGSGFTFSSFNMFWVRQAPGKGLEWVAGIGKDGVPKYGAAVDGRATISKDNGQSTMRLQLNNLRAEDTGTYFCAKAAGGCSYDWCGIYAGDIDTWGHGTEVIVSS
# VL: ASTQPSSVSANPGEAVKITCSGGSGSYYGWYQQKSPGSAPVTVIYNNNQRPSDIPSRFSGSKSGSTATLTITGVQAEDEAVYFCGGYDSSSGHGGIFGAGTTLTVL
# modifications: mouse constant regions
# B4: #13: chicken-mouse chimeric anti-FSTL1 antibody clone; variable regions SEQ ID NO: 815 (light), 817 (heavy) (antibody, V domains shown)
# VH: B2 VH
# VL: ASTQPSSVSANPGETVKITCSGGGNNYGWYQQKSPGSAPVTVIYNNNNRPSNIPSRFSGSKSGSTNTLTITGVQAEDEAVYYCGSYDSSSDSGIFGAGTTLTVL
# modifications: mouse constant regions
# B5: #33: chicken-mouse chimeric anti-FSTL1 antibody clone; variable regions SEQ ID NO: 823 (light), 825 (heavy) (antibody, V domains shown)
# VH: AVTLDESGGGLQTPGGGLSLVCKASGFTFSSFNMNWVRQAPGKGLEYVAEISGTGSSTYYGSAVKGRATISRDNGQSTVRLQLNNLRAEDTATYFCARGDGAYSIDAWGHGTEVIVSS
# VL: ASTQPSSVSANPGETVEITCSGDSSYYGWFQQKSPGSAPVTVIYDNTNRPSDIPSRFSGSKSGSTATLTITGVRAEDEAVYYCGGYDSSTYDGIFGAGTTLTVL
# modifications: mouse constant regions
# Columns and labels:
# [1] = tested on: mouse melanoma cells (B16-F10) forced to express Snail; test: In vivo, intratumoral administration, Snail-positive B16-F10 bone metastasis model (Example 17); set-up: species or system C57BL/6N mice; conditions: intratumoral 200 μg/0.1 mL/tumor on day 7; GFP-positive tumor cells in bone marrow, day 14
# Source text: Three antibodies were comparatively analyzed for their antitumor effects and an immunosuppression-mitigating effect using bone metastasis models in which mouse melanoma cells B16-F10 forced to express Snail were subcutaneously and intravenously transplanted in C57BL/6N mice.
# 1. Experiment Group (n=5) • 1. No treatment • 2. Control IgG (anti-DNP) • 3. Anti-FSTL1 Clone #6-55 • 4. Anti-FSTL1 Clone #7-34 • 5. Anti-FSTL1 Clone #8-1 2. Experimental procedure • Day 0: transplantation of GFP-positive and Snail-positive B16-F10 tumor cells (5×10^5 cells subcutaneously & 1×10^5 cells intravenously) • Day 7: intratumoral administration of the antibody (200 μg/0.1 mL/tumor) • Day 14: various assays (with a focus on flow cytometry analysis) 3. Index for drug efficacy evaluation • Effects on the growth of subcutaneous tumor (calculation of tumor volume by tumor size measurement): measured 7, 11, and 14 days after tumor implantation (FIG. 11C) • Effects on bone metastasis (GFP-positive tumor cells in bone marrow) (FIG. 11A) • Effects on the expansion of mesenchymal stem cells (CD45-negative cells in bone marrow and in the spleen) (FIGS. 11B and 11D) • Effects on the expansion of immunosuppressive Treg cells (CD4-positive and Foxp3-positive cells in bone marrow or the spleen) (FIG. 11D) • Other immunosuppressive properties (FIG. 11D)
# In order to evaluate in vivo antibody activity, antitumor effects and immunosuppression-mitigating effects were comparatively analyzed using bone metastasis models in which mouse melanoma cells (B16-F10) forced to express Snail were subcutaneously and intravenously transplanted in C57BL/6N mice. An anti-FSTL1 antibody to be tested was administered into tumor. On day 0, GFP-positive and Snail-positive B16-F10 tumor cells (5×10^5 cells subcutaneously & 1×10^5 cells intravenously) were transplanted. On day 7, the antibody was administered into subcutaneous tumor (200 μg/0.1 mL/tumor). On day 14, various assays were conducted. […]
# [2] = tested on: GFP+F10-snail+ tumor cells; test: In vivo drug efficacy of each anti-FSTL1 antibody clone, Snail+ tumor bone metastasis model (Example 32); set-up: species or system mouse; conditions: intraperitoneal 10 mg/kg on days 4 and 7; for suppressive activity against subcutaneous tumor growth: FIG. 26, vs control antibody; for mouse survival period (life-prolonging effect): FIG. 27
# Experimental: • Day 0: transplantation of GFP+F10-snail+ tumor cells (3×10^5 cells subcutaneously & 2×10^4 cells intravenously) • Day 4: intraperitoneal administration of the antibody (first dose, 10 mg/kg) • Day 7: intraperitoneal administration of the antibody (second dose, 10 mg/kg)
# Subcutaneous tumor was measured 4, 7, 10, 14, 17, 20, and 23 days after tumor cell transplantation.
Molecule,bone metastasis [1],suppressive activity against subcutaneous tumor growth [2],mouse survival period (life-prolonging effect) [2]
B1,bone metastasis was suppressed by only #6-55 and #8-1,statistically significant suppressive activity,statistically significant life-prolonging effect
B2,no suppressive effect was seen,–,–
B3,bone metastasis was suppressed by only #6-55 and #8-1,–,–
B4,–,all of the clones except for #13 exhibited statistically significant suppressive activity,–
B5,–,–,therapeutic effects equal to or higher than those of #6-55
